# In article PMC7911018 (2021):
# Target: HER2 ectodomain-Fc (96 kDa) (human, UniProt P04626 23-652)
# Test: SPR
row,Kd,Binder
1,8.1 nM,VHH A10 (anti-HER2 nanobody) (VHH) VHH: DVQLQASGGGFVQPGGSLRLSCAASGATSNISNMGWFRQAPGKEREFVSAISRAESRPLYYADSVKGRFTISRDNSKNTVYLQMNSLRAEDTATYYCAYMPLVRHKAYWGQGTQVTVSS
2,40.5 nM,A10C (A10 CDRs grafted into the C8WT scaffold) (VHH) VHH: DVQLQASGGGLAQPGGSLRLSCAASCDRMYWVRQAPGKGLEWVSSCDRYYADSVKGRFTISRDNAKNTLYLQMNSLKLEDTALYFCACDRGQGTQVTVSS
